# T1: human CD80-murine Ig fusion protein (human)
# T1 construct: Bought (Ancell #510-820); also called hCD80-mIg; human CD80-murine IgG
# T1 chain: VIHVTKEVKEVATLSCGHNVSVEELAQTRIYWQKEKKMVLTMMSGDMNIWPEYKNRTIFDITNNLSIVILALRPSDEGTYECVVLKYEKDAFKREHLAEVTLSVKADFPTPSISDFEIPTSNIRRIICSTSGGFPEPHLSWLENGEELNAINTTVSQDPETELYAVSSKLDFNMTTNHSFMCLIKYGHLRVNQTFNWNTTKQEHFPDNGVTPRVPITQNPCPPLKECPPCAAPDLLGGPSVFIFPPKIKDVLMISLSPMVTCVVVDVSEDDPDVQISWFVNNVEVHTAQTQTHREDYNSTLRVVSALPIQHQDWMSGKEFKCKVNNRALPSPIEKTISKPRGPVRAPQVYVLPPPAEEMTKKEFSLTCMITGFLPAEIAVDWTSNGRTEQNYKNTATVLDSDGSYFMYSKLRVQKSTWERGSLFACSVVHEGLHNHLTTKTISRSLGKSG
# T2: human CD86-murine Ig fusion protein (human)
# T2 construct: Bought (Ancell #509-820); also called hCD86-mIg
# T2 chain: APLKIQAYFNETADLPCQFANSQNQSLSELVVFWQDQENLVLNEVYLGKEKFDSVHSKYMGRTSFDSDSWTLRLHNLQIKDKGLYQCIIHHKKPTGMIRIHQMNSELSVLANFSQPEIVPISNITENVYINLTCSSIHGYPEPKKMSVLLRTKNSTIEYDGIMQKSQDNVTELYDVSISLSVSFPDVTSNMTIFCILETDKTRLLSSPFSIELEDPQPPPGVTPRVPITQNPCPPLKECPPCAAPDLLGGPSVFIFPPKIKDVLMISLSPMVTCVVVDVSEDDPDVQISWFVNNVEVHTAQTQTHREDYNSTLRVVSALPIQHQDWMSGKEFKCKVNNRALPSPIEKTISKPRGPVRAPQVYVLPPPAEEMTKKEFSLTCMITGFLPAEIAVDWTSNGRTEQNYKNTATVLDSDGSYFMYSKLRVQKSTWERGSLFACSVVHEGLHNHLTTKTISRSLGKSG
# Legend:
# [1] = molecular target: T1, human CD80-murine Ig fusion protein; test: SPR Biacore, hCD80-mIg captured
# Protocol: (§1) All Biacore™ analyses were performed on a Biacore™ 2000 system (GE Healthcare) at room temperature (RT, 25° C.). HBS-EP buffer (10 mM HEPES (pH 7.4), 150 mM NaCl, 3 mM EDTA, 0.005% surfactant P20) was used as the flow buffer for all experiments.
# (§2) Rabbit anti-mouse IgG antibody (GE Healthcare, #BR-1005-14) was immobilized on CM5 sensor chips (GE Healthcare, #BR-1000-14) according to the manufacturer's protocol. Antibody was diluted to 30 μg/ml in immobilization buffer (10 mM sodium acetate, pH 5.0 (BR-1003-51)). At a flow rate of 5 μl/minute, sensor chip CM5 was activated with a 35 μl injection of a mixture of 1-Ethyl-3-[3-dimethylaminopropyl]carbodiimide hydrochloride (EDC) and N-hydroxysuccinimide (NHS) (made by mixing equal volumes of 11.5 mg/ml EDC and 75 mg/ml NHS) (GE Healthcare, #BR-1000-50), followed by a 35 μl injection of undiluted antibody. Un-reacted sites were quenched with 35 μl of 1M ethanolamine-HCL, pH 8.5 (GE Healthcare, #BR-1000-50). […] CTLA-4 ligands human CD80-murine Ig (hCD80-mIg) (Ancell, #510-820) or human CD86-murine Ig (hCD86-mIg) (Ancell, #509-820) were bound to antibody-coated sensor chips by injection of 10 μl or 16 μl, respectively, ligand solution (2 μg/ml protein in HBS-EP buffer [10 mM HEPES pH 7.4, 150 mM NaCl, 3 mM EDTA, 0.005% (v/v) surfactant P-20, GE Healthcare, #BR-1001-88]) at a flow rate of 10 μl/min.
# [2] = molecular target: T2, human CD86-murine Ig fusion protein; test: SPR Biacore, hCD86-mIg captured
# Protocol: as §1, §2
Binder,Binding Avidity (Relative to Orencia) [1] [fold],Kd [1] [nM],Binding Avidity (Relative to Orencia) [2] [fold],Kd [2] [nM]
D3-66-IgG2 (Fc fusion) MHVAQPAVVLASSRGIASFVCEYASPGKANEVRVTVLRQADSQVTEVCAMTYMKGDELTFLDDPICTGTFSGNQVNLTIQGLRAMDTGLYICKVELMYPPPYYEGIGNGTQIYVIDPEPCPDSDERKCCVECPPCPAPPVAGPSVFLFPPKPKDTLMISRTPEVTCVVVDVSHEDPEVQFNWYVDGVEVHNAKTKPREEQFNSTFRVVSVLTVVHQDWLNGKEYKCKVSNKGLPAPIEKTISKTKGQPREPQVYTLPPSREEMTKNQVSLTCLVKGFYPSDIAVEWESNGQPENNYKTTPPMLDSDGSFFLYSKLTVDKSRWQQGNVFSCSVMHEALHNHYTQKSLSLSPG,> 2,< 0.439,> 40,< 0.131
D3-76-IgG2 (Fc fusion) MHVAQPAVVLASSRGIASFVCEYASPGKANEVRVTVLRQADSQVTEVCAMTYMKEDELTFLDDPICTGTFSGNQVNLTIQGLRAMDTGLYICKVELMYPPPYYLGIGNGTQIYVIDPEPCPDSDERKCCVECPPCPAPPVAGPSVFLFPPKPKDTLMISRTPEVTCVVVDVSHEDPEVQFNWYVDGVEVHNAKTKPREEQFNSTFRVVSVLTVVHQDWLNGKEYKCKVSNKGLPAPIEKTISKTKGQPREPQVYTLPPSREEMTKNQVSLTCLVKGFYPSDIAVEWESNGQPENNYKTTPPMLDSDGSFFLYSKLTVDKSRWQQGNVFSCSVMHEALHNHYTQKSLSLSPG,–,0.439 to 1.75,> 40,< 0.131
D20-IgG2 (Fc fusion) MHVAQPAVVLASSRGIASFVCEYESPHKATEIRVTVLRQADSQVTEVCAMTYMMEDELTFLDDPICTGTFSGNQVNLTIQGLRAMDTGLYICKVELMYPPPYYLGIGNGTQIYVIDPEPCPDSDERKCCVECPPCPAPPVAGPSVFLFPPKPKDTLMISRTPEVTCVVVDVSHEDPEVQFNWYVDGVEVHNAKTKPREEQFNSTFRVVSVLTVVHQDWLNGKEYKCKVSNKGLPAPIEKTISKTKGQPREPQVYTLPPSREEMTKNQVSLTCLVKGFYPSDIAVEWESNGQPENNYKTTPPMLDSDGSFFLYSKLTVDKSRWQQGNVFSCSVMHEALHNHYTQKSLSLSPG,–,0.439 to 1.75,–,0.131 to 0.262
D3-74-IgG2 (Fc fusion) MHVAQPAVVLASSRGIASFVCEYASPGKANEIRVTVLRQADSQVTEVCAMTYMKGNELTFLDDPICTGTFSGNQVNLTIQGLRAMDTGLYICKVELMYPPPYYEGIGNGTQIYVIDPEPCPDSDERKCCVECPPCPAPPVAGPSVFLFPPKPKDTLMISRTPEVTCVVVDVSHEDPEVQFNWYVDGVEVHNAKTKPREEQFNSTFRVVSVLTVVHQDWLNGKEYKCKVSNKGLPAPIEKTISKTKGQPREPQVYTLPPSREEMTKNQVSLTCLVKGFYPSDIAVEWESNGQPENNYKTTPPMLDSDGSFFLYSKLTVDKSRWQQGNVFSCSVMHEALHNHYTQKSLSLSPG,> 2,< 0.439,> 40,< 0.131
D6-IgG2 (Fc fusion) MHVAQPAVVLASSRGIASFVCEYASPGKATEIRVTVLRQADSQVTEVCAMTYMMGDELTFLDDPICTGTFSGNQVNLTIQGLRAMDTGLYICKVELMYPPPYYLGIGNGTQIYVIDPEPCPDSDERKCCVECPPCPAPPVAGPSVFLFPPKPKDTLMISRTPEVTCVVVDVSHEDPEVQFNWYVDGVEVHNAKTKPREEQFNSTFRVVSVLTVVHQDWLNGKEYKCKVSNKGLPAPIEKTISKTKGQPREPQVYTLPPSREEMTKNQVSLTCLVKGFYPSDIAVEWESNGQPENNYKTTPPMLDSDGSFFLYSKLTVDKSRWQQGNVFSCSVMHEALHNHYTQKSLSLSPG,–,0.439 to 1.75,–,0.523 to 2.65
D24-IgG2 (Fc fusion) MHVAQPAVVLASSRGIASFVCEYESPGKANEIRVTVLRKAGSQVTEVCAMTYMKEDELTFLDDPSCTGTFSGNQVNLTIQGLRAADTGLYICKVELMYPPPYYLGLGNGTQIYVIDPEPCPDSDERKCCVECPPCPAPPVAGPSVFLFPPKPKDTLMISRTPEVTCVVVDVSHEDPEVQFNWYVDGVEVHNAKTKPREEQFNSTFRVVSVLTVVHQDWLNGKEYKCKVSNKGLPAPIEKTISKTKGQPREPQVYTLPPSREEMTKNQVSLTCLVKGFYPSDIAVEWESNGQPENNYKTTPPMLDSDGSFFLYSKLTVDKSRWQQGNVFSCSVMHEALHNHYTQKSLSLSPG,–,0.439 to 1.75,> 40,< 0.131

# More lines, now with the values ahead:
Binding Avidity (Relative to Orencia) [1] [fold],Kd [1] [nM],Binding Avidity (Relative to Orencia) [2] [fold],Kd [2] [nM],Binder
–,0.439 to 1.75,–,0.131 to 0.262,D21-IgG2 (Fc fusion) MHVAQPAVVLASSRGIASFVCEYSAPHNADEIRVTVLRKASSQVTEVCAMTYMEEDELTFLDDPTCTGTFSGNQVNLTIQGLRAVDTGLYICKVELMYPPPYYLGFGNGTQIYVIDPEPCPDSDERKCCVECPPCPAPPVAGPSVFLFPPKPKDTLMISRTPEVTCVVVDVSHEDPEVQFNWYVDGVEVHNAKTKPREEQFNSTFRVVSVLTVVHQDWLNGKEYKCKVSNKGLPAPIEKTISKTKGQPREPQVYTLPPSREEMTKNQVSLTCLVKGFYPSDIAVEWESNGQPENNYKTTPPMLDSDGSFFLYSKLTVDKSRWQQGNVFSCSVMHEALHNHYTQKSLSLSPG
> 2,< 0.439,> 40,< 0.131,D23-IgG2 (Fc fusion) MHVAQPAVVLASSRGIASFVCEYSAPHNAAEIRVTVLRKAGSQVTEVCAMTYMKEDELTFLDDPSCTGTFSGNQVNLTIQGLRAADTGLYICKVELMYPPPYYLGLGNGTQIYVIDPEPCPDSDERKCCVECPPCPAPPVAGPSVFLFPPKPKDTLMISRTPEVTCVVVDVSHEDPEVQFNWYVDGVEVHNAKTKPREEQFNSTFRVVSVLTVVHQDWLNGKEYKCKVSNKGLPAPIEKTISKTKGQPREPQVYTLPPSREEMTKNQVSLTCLVKGFYPSDIAVEWESNGQPENNYKTTPPMLDSDGSFFLYSKLTVDKSRWQQGNVFSCSVMHEALHNHYTQKSLSLSPG
–,0.439 to 1.75,–,0.523 to 2.65,"D4-IgG2 (Fc fusion, also called clone D4) MHVAQPAVVLASSRGIASFVCEYSSPGKADEIRVTVLRQASSQVTEVCAMTYMEGDELTFLDDPTCTGTFSGNQVNLTIQGLRAVDTGLYICKVELMYPPPYYLGFGNGTQIYVIDPEPCPDSDERKCCVECPPCPAPPVAGPSVFLFPPKPKDTLMISRTPEVTCVVVDVSHEDPEVQFNWYVDGVEVHNAKTKPREEQFNSTFRVVSVLTVVHQDWLNGKEYKCKVSNKGLPAPIEKTISKTKGQPREPQVYTLPPSREEMTKNQVSLTCLVKGFYPSDIAVEWESNGQPENNYKTTPPMLDSDGSFFLYSKLTVDKSRWQQGNVFSCSVMHEALHNHYTQKSLSLSPG"
–,0.439 to 1.75,–,0.523 to 2.65,D5-IgG2 (Fc fusion) MHVAQPAVVLASSRGIASFVCEYASPGKATEVRVTVLRQADSQVTEVCAATYMMGDELTFLDDPICTGTFSGNQVNLTIQGLRAMDTGLYICKVELMYPPPYYLGIGNGTQIYVIDPEPCPDSDERKCCVECPPCPAPPVAGPSVFLFPPKPKDTLMISRTPEVTCVVVDVSHEDPEVQFNWYVDGVEVHNAKTKPREEQFNSTFRVVSVLTVVHQDWLNGKEYKCKVSNKGLPAPIEKTISKTKGQPREPQVYTLPPSREEMTKNQVSLTCLVKGFYPSDIAVEWESNGQPENNYKTTPPMLDSDGSFFLYSKLTVDKSRWQQGNVFSCSVMHEALHNHYTQKSLSLSPG
